# Results published in the supplement of paper PMC9112550, “Optimization of the antimicrobial peptide Bac7 by deep mutational scanning” (BMC Biology, 2022).
# System: Escherichia coli TOP10
# Assay: shrunken log2 fold change of peptide-encoding DNA abundance (4.5 h post-induction vs induction); higher = less antimicrobial activity (less host growth inhibition)
# Conditions: time post-induction: 4.5 h; library: site-saturation at positions 5, 18, 19, 20
# 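Note: peptides expressed intracellularly from a pBAD plasmid library in pooled LB shake-flask culture, induced with 0.3% L-arabinose, DNA abundance read by NGS, three biological replicates, DESeq2 with apeglm shrinkage.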
row,Sequence,shrunken log2 fold change
1,RRIRNRPPRLPRPRPRPECQPRP,0.00386
2,RRIRNRPPRLPRPRPRPEDWPRP,-0.0232
3,RRIRNRPPRLPRPRPRPEGLPRP,0.364
4,RRIRNRPPRLPRPRPRPEGPPRP,0.026
5,RRIRNRPPRLPRPRPRPEHKPRP,0.00308
6,RRIRNRPPRLPRPRPRPEHNPRP,-0.486
7,RRIRNRPPRLPRPRPRPEHPPRP,0.115
8,RRIRNRPPRLPRPRPRPEIKPRP,0.101
9,RRIRNRPPRLPRPRPRPEKIPRP,-0.0207
10,RRIRNRPPRLPRPRPRPELQPRP,-0.0211
11,RRIRNRPPRLPRPRPRPENAPRP,-0.133
12,RRIRNRPPRLPRPRPRPEPAPRP,0.88
13,RRIRNRPPRLPRPRPRPEPGPRP,0.321
14,RRIRNRPPRLPRPRPRPEPRPRP,0.635
15,RRIRNRPPRLPRPRPRPEQPPRP,0.0618
16,RRIRNRPPRLPRPRPRPERIPRP,-0.00936
17,RRIRNRPPRLPRPRPRPESFPRP,-0.0337
18,RRIRNRPPRLPRPRPRPETDPRP,-0.05
19,RRIRNRPPRLPRPRPRPEVAPRP,0.418
20,RRIRNRPPRLPRPRPRPEVKPRP,-0.031
21,RRIRNRPPRLPRPRPRPEWAPRP,0.0317
22,RRIRNRPPRLPRPRPRPEYCPRP,0.00705

row,Sequence,shrunken log2 fold change
1,RRIRNRPPRLPRPRPRPFAHPRP,-0.00369
2,RRIRNRPPRLPRPRPRPFCVPRP,-0.0352
3,RRIRNRPPRLPRPRPRPFFEPRP,-0.0529
4,RRIRNRPPRLPRPRPRPFFSPRP,-0.14
5,RRIRNRPPRLPRPRPRPFGEPRP,-0.0176
6,RRIRNRPPRLPRPRPRPFGMPRP,0.0298
7,RRIRNRPPRLPRPRPRPFGWPRP,0.0221
8,RRIRNRPPRLPRPRPRPFLAPRP,-0.164
9,RRIRNRPPRLPRPRPRPFLFPRP,-0.301
10,RRIRNRPPRLPRPRPRPFLIPRP,0.117
11,RRIRNRPPRLPRPRPRPFMDPRP,0.0237
12,RRIRNRPPRLPRPRPRPFNEPRP,-0.198
13,RRIRNRPPRLPRPRPRPFNHPRP,-1.02
14,RRIRNRPPRLPRPRPRPFPGPRP,-0.00992
15,RRIRNRPPRLPRPRPRPFTCPRP,-0.215
16,RRIRNRPPRLPRPRPRPFTMPRP,-0.149
17,RRIRNRPPRLPRPRPRPFTYPRP,-0.0143
18,RRIRNRPPRLPRPRPRPFVDPRP,-0.725
19,RRIRNRPPRLPRPRPRPFWPPRP,0.226
20,RRIRNRPPRLPRPRPRPFWSPRP,-0.146
21,RRIRNRPPRLPRPRPRPGARPRP,0.582
22,RRIRNRPPRLPRPRPRPGCGPRP,0.451

row,Sequence,shrunken log2 fold change
1,RRIRNRPPRLPRPRPRPGDDPRP,0.0116
2,RRIRNRPPRLPRPRPRPGDTPRP,-0.0217
3,RRIRNRPPRLPRPRPRPGEQPRP,0.137
4,RRIRNRPPRLPRPRPRPGERPRP,-0.0647
5,RRIRNRPPRLPRPRPRPGFEPRP,0.123
6,RRIRNRPPRLPRPRPRPGGHPRP,-0.102
7,RRIRNRPPRLPRPRPRPGHFPRP,0.0512
8,RRIRNRPPRLPRPRPRPGHGPRP,-0.19
9,RRIRNRPPRLPRPRPRPGHNPRP,-0.64
10,RRIRNRPPRLPRPRPRPGKDPRP,-0.0565
11,RRIRNRPPRLPRPRPRPGKMPRP,-0.203
12,RRIRNRPPRLPRPRPRPGKTPRP,0.0837
13,RRIRNRPPRLPRPRPRPGLSPRP,0.486
14,RRIRNRPPRLPRPRPRPGNEPRP,-0.223
15,RRIRNRPPRLPRPRPRPGPMPRP,-0.0257
16,RRIRNRPPRLPRPRPRPGPRPRP,0.641
17,RRIRNRPPRLPRPRPRPGQMPRP,0.00315
18,RRIRNRPPRLPRPRPRPGQYPRP,0.0262
19,RRIRNRPPRLPRPRPRPGSDPRP,-0.0348
20,RRIRNRPPRLPRPRPRPGTIPRP,-0.316
21,RRIRNRPPRLPRPRPRPGTLPRP,-0.0615
22,RRIRNRPPRLPRPRPRPGTVPRP,-0.31

row,Sequence,shrunken log2 fold change
1,RRIRNRPPRLPRPRPRPGVAPRP,0.135
2,RRIRNRPPRLPRPRPRPGWPPRP,0.541
3,RRIRNRPPRLPRPRPRPGWYPRP,-0.273
4,RRIRNRPPRLPRPRPRPGYAPRP,-0.0974
5,RRIRNRPPRLPRPRPRPGYSPRP,-0.42
6,RRIRNRPPRLPRPRPRPGYTPRP,-0.501
7,RRIRNRPPRLPRPRPRPHAWPRP,-0.0119
8,RRIRNRPPRLPRPRPRPHDPPRP,-0.202
9,RRIRNRPPRLPRPRPRPHDVPRP,-0.0113
10,RRIRNRPPRLPRPRPRPHDYPRP,0.0503
11,RRIRNRPPRLPRPRPRPHFEPRP,0.066
12,RRIRNRPPRLPRPRPRPHFFPRP,3.33
13,RRIRNRPPRLPRPRPRPHFKPRP,-0.52
14,RRIRNRPPRLPRPRPRPHGFPRP,0.0815
15,RRIRNRPPRLPRPRPRPHGLPRP,-0.257
16,RRIRNRPPRLPRPRPRPHHLPRP,-0.427
17,RRIRNRPPRLPRPRPRPHIQPRP,2.34
18,RRIRNRPPRLPRPRPRPHKWPRP,-0.285
19,RRIRNRPPRLPRPRPRPHLIPRP,-0.00549
20,RRIRNRPPRLPRPRPRPHMMPRP,-0.326
21,RRIRNRPPRLPRPRPRPHMWPRP,-0.0758
22,RRIRNRPPRLPRPRPRPHNLPRP,-0.272

row,Sequence,shrunken log2 fold change
1,RRIRNRPPRLPRPRPRPHPMPRP,0.0281
2,RRIRNRPPRLPRPRPRPHPTPRP,-0.0363
3,RRIRNRPPRLPRPRPRPHRWPRP,0.0666
4,RRIRNRPPRLPRPRPRPHVSPRP,-0.00166
5,RRIRNRPPRLPRPRPRPHWFPRP,-0.318
6,RRIRNRPPRLPRPRPRPICPPRP,-0.0189
7,RRIRNRPPRLPRPRPRPIDDPRP,0.00709
8,RRIRNRPPRLPRPRPRPIDKPRP,-0.0756
9,RRIRNRPPRLPRPRPRPIDSPRP,-0.0173
10,RRIRNRPPRLPRPRPRPIDWPRP,0.0533
11,RRIRNRPPRLPRPRPRPIGTPRP,0.000741
12,RRIRNRPPRLPRPRPRPIIAPRP,-0.127
13,RRIRNRPPRLPRPRPRPIKKPRP,0.149
14,RRIRNRPPRLPRPRPRPIKTPRP,-0.0156
15,RRIRNRPPRLPRPRPRPIKWPRP,-0.498
16,RRIRNRPPRLPRPRPRPILDPRP,-0.0452
17,RRIRNRPPRLPRPRPRPILKPRP,0.0926
18,RRIRNRPPRLPRPRPRPIPTPRP,-0.0847
19,RRIRNRPPRLPRPRPRPIQTPRP,-0.0112
20,RRIRNRPPRLPRPRPRPIRAPRP,-0.0265
21,RRIRNRPPRLPRPRPRPISIPRP,0.0125
